Measurements from patent publication US20070184522A1, “Cell death modulation via antagonists of Fasl and Fas activation” (University of Pittsburgh of the Commonwealth System of …, priority 2004, published 2007).

Assays:
[1] = target: T1, Fas on Jurkat cells (Homo sapiens, UniProt P25445); assay: Immunostaining of cell surface FasL binding on Jurkat cells; type: cell-based; conditions: 4° C. 30 minutes
T1 construct: endogenous in cells; host or cells: Jurkat
T1 sequence (P25445 26-335): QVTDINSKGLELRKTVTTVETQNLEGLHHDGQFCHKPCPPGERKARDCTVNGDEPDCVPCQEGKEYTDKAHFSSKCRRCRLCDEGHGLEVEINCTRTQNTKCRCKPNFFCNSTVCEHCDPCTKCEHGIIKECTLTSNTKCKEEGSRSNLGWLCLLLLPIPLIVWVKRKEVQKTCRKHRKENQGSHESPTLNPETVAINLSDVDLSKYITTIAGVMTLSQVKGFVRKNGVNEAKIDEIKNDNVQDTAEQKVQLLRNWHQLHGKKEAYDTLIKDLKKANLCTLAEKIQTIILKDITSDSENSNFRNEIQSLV
Experimental: This antibody also recognizes Fas-Fc which is also tagged at the C-terminus by His. In FIG. 2b, a fixed amount of purified recombinant Fas-ligand was added to Fas-Fc in the absence or presence of increasing amounts of AlphaMet as indicated. Samples were subjected to pull down using proteinA agarose followed by Western blot using a polyclonal rabbit anti-FasL antibody. […] Fas ligand (1 μg/ml) was coated in the wells of a microtiter plate (triplicate wells) then 1 μg/ml of Fas-Fc was added in the absence or presence of an increasing amount of the indicated polypeptide. A 13 mer YLGA polypeptide derived from FasL also was synthesized and used. The control peptide was a scrambled 13 mer. Anti human IgM-HRP conjugates were used to detect the bound Fas-Fc. […] One-way ANOVA was carried out for determination of statistical significance. […] Cells (3×10^5) were plated in 24-well plates having Poly-L-Lysine pre-treated cover glass. 2 μg/ml of Fas ligand was added and the cells were incubated for 30 min on ice. Cells were then washed by PBS twice, and were subjected to immunostaining using anti-Fas ligand antibody and fluorescent microscopy. […]
Abrogation of Fas-FasL binding by the presence of the synthetic polypeptides corresponding to the AlphaMet YLGA (SEQ ID NO:1) motif was then analyzed. […]

[2] = test system: caspase-3 activation in Hepa 1-6 cells; assay: Cleaved Caspase 3 in apoptotic Hepa 1-6 cell lysates; type: cell-based, mouse
Experimental: For FIG. 4a, Jurkat cells (1.5×10^5) were overnight treated in triplicate with 5 ng/ml of crosslinked human Fas ligand with or without 5 μg/ml of recombinant AlphaMet or 1 μg/ml of the indicated polypeptides. Percent apoptosis was determined by Trypan Blue staining using a hemocytometer. The data are representative and were repeated at least four times. […] The 17 kDa fragment of cleaved Caspase 3 is visualized by this antibody. The blot was reprobed for β-actin as a loading control. For FIG. 4c, serum deprived Hepa 1-6 cells (3×10^5) were overnight treated with 1 μg/ml of crosslinked mouse Fas ligand with or without AlphaMet or the indicated polypeptide. Media were collected and centrifuged to pellet the dead cells. […] The data in FIG. 4c represents three independent experiments.

B1: alpha subunit of Met (AlphaMet), amino acid residues 1 to 306, His-tagged (receptor, mouse)
chain: MKAPTVLAPGILVLLLSLVQRSHGECKEALVKSEMNVNMKYQLPNFTAETPIQNVVLHGHHIYLGATNYIYVLNDKDLQKVSEFKTGPVLEHPDCLPCRDCSSKANSSGGVWKDNINMALLVDTYYDDQLISCGSVNRGTCQRHVLPPDNSADIQSEVHCMFSPEEESGQCPDCVVSALGAKVLLSEKDRFINFFVGNTINSSYPPGYSLHSISVRRLKETQDGFKFLTDQSYIDVLPEFLDSYPIKYIHAFESNHFIYFLTVQKETLDAQTFHTRIIRFCSVDSGLHSYMEMPLECILTEKRRKRHHHHHH
cell surface FasL binding to Fas [1]: blocked
Activation of caspase-3 [2]: also inhibited by the wild type
